Measurements as given in the DeepSol protein solubility set.

Assay: soluble on expression in E. coli; label from the status in PepcDB or PDB records
With “SLAKYLELSMGFEEVAYRGLETNSRRLASHVVRNGNILFEIINTLESVAEHYPTVPMSKEEALSIKLDYSADEAHILKSLKEKIIKLTAEIVDENLDRYKYAMDIKAAKENLERSIINSTNFTAAISTIRKSINECVETSKKAIQDNFESFLIQEFVKIHGEGVMDISFNVLDVDSAFQKAIESGAYIIKLPQTMSDVHGSVKLATIAVPYTDIHHTLIQNKDYSGPFLPNYTKSIIEKPETYMHQLESLPPIRLDCIDHCVENYSWNQMMEHARFYANIFGFHKYWSVDEKDVFTGETALKSIVMASSNGKVKMPINEPAKGRKKSQIEEFYDFNGGPGVQHIALKTNDIIATVTSLRKRGIEFNPASQKYYDTLKQRLINDDIILKEDFNSIQNLNILVDYDPETRNNASKTCNYILQIFTKPLHDRPTLFIEIIQRRHHNGFGKGTFKGLFETIEAQQKLRGTLVSSDEG” the “soluble on expression in E. coli” value was “not soluble”.
With “SLALPADPIQRCLDIRRLVDITSRQKMAAKEPGVLRFKFHKISASELPLDNPVGNMDEVIQALNNQIENCNNSYGEFQTVTIAGHQFKRQEWCLNTNKKMLTLAKAAHGDFKKFLSSIKTEFDWYKSDGWPENHAGFKKGEFQFTAYYAPAAVEARSERGGAFLYPLYSNPGVVSVALESKKYNLKTPLCGVDPLSKVMRGFCLKNADGTYSVAPDREEIEHGALNPKYIIGYLKDPNDSAFLMLQGSGSLLLDGKLFHINYDGANGRPRTMLGRIVQCAQDPTCGGNLDTMERCAKDPKCHDEAKLRCNVSKKIRQSAASEKLIRQYLNNLTPDKADNLRNRDQSYVFFAKEDGGPYGSENISLTPHV” the “soluble on expression in E. coli” value was “not soluble”.
With “SLAPQPLKKGEKAIDVASVVRQKMPASVKDRDAWAKDLATTFESQGLAPTLENVCSVLAVAQQESNYQADPAVPGLSKIAWQEIDRRAERMHIPAFLVHTALKIKSPNGKSYSERLDSVRTEKQLSAIFDDLISMVPMGQTLFGSLNPVRTGGPMQVSIAFAEQHTKGYPWKMDGTVRQEVFSRRGGLWFGTYHLLNYPASYSAPIYRFADFNAGWYASRNAAFQNAVSKASGVKLALDGDLIRYDSKEPGKTELATRKLAGKLGMSDSEIRRQLEKGDSFSFEETALYKKVYQLAEAKTGKSLPREMLPGIQLESPKITRNLTTAWFAKRVDERRARCMKQ” the “soluble on expression in E. coli” value was “soluble”.
For “SLCHVTRPDAVVMEIEVDAKANGEDCLNKVCRKLGIIEVDYFGLQFSGSKGENLWLNLRNRISQQMDNLTPCRLRLRVKFFVEPHLILQEQTRHLFFMHVKEDLHRGHLRMCSEQAQELSALLAQAEFGDYNQNTAKYWYTELCGSEPNQTTINSIIAKHKALEGLSQASVEYQALQLVSSLEHYGVEWHWARDAEAQRLAIGVGPEGIAICRDDFSLVNRISYPIIQIATQSGKSVYLTVTKESSDSVVLLFKLISN”, the “soluble on expression in E. coli” value was “soluble”.
In the case of “SLEEKVRPCIDLIDSLRALGVEQDLALPAIAVIGDQSSGKSSVLEALSGVALPRGSGIVTRCPLVLKLKKLVNEDKWRGKVSYQDYEIEISDASEVEKEINKAQNAIAGEGMGISHELITLEISSRDVPDLTLIDLPGITRVAVGNQPADIGYKIKTLIKKYIQRQETISLVVVPSNVDIATTEALSMAQEVDPEGDRTIGILTKPDLVDKGTEDKVVDVVRNLVFHLKKGYMIVKCRGQQEIQDQLSLSEALQREKIFFENHPYFRDLLEEGKATVPCLAEKLTSELITHICKSLPLLENQIKETHQRITEELQKYGVDIPEDENEKMFFLIDKINAFNQDITALMQGEETVGEEDIRLFTRLRHEFHKWSTIIENNFQEGHKILSRKIQKFENQYRGRELPGFVNYRTFETIVKQQIKALEEPAVDMLHTVTDMVRLAFTDVSIKNFEEFFNLHRTAKSKIEDIRAEQEREGEKLIRLHFQMEQIVYCQDQVYRGALQKVREKELEEEKKKKSWDFGAFQSSSATDSSMEEIFQHLMAYHQEASKRISSHIPLIIQFFMLQTYGQQLQKAMLQLLQDKDTYSWLLKERSDTSDKRKFLKERLARLTQARRRLAQFPGEG”, the “soluble on expression in E. coli” value is reported as “not soluble”.
With “SLGPPPGPPRVSPDPRAELDSTVLLTRSLLADTRQLAAQLRDKFPADGDHNLDSLPTLAMSAGALGALQLPGVLTRLRADLLSYLRHVQWLRRAGGSSLKTLEPELGTLQARLDRLLRRLQLLMSRLALPQPPPDPPAPPLAPPSSAWGGIRAAHAILGGLHLTLDWAVRGLLLLKTR” the “soluble on expression in E. coli” value was “soluble”.
In the case of “SLKLLIEEFIPVEEISEEAKKEKLGNAKPPIFSLHYWWARKPLITARAAVLGALISKENLPMIVGNGDLKTNLLRILRIPKDINEGPRAHTQDPPAEYLKEAIIKTWGEIPTVLDPFAGGGSIPFEALRLGCNAVAVDYNPVAYLILKETLEYPKKYGMKLIL”, the “soluble on expression in E. coli” value is reported as “soluble”.
In the case of “SLKPINYVPHFLCRISGEEINSISEIEFIKTLECLELSEGILRKINSLSADLTKDLHDCISLYKEQSISRVLINLKRDIFNMRFNRVQKYKLENISGFNHDKLNLWLNLAQEYQSTLHLMRETFKMEIQEKRGKLKQLFSNSEYIKAIQVSNTQLYENLLEYLQDNQSHPPKKMRNIEQSLINYLSRMIFKPTPFSSFTGLNYGFFSQEDSSFEINTKESKGHTRINMVYLKKIERMLLNRISIKNKCYVSLNQTINEEENYMFFRRGKDGTSQAFTGEAFIKIKKSELLKELIQYFEGISSMNIVEVVSFLSEKTNYETEALYNYLFKLEKMGVLDFSLGVSEQSDNYTKDLIENLLGIKDSLVEKSVSHLVEIEKIQAIFSESNYQKRYVLLKNLQEHIKKIYSLFDLKLESNDLTSLLFEDVSYKNTKIILNENQWKTHLDDFNLIKNLMPLFDDNILEKLSMNIIFKDIYGNKGAIDLLEFYREFNKYDKNLLWKKIRKNDTYLYLKKLRTEFYDYLETQINMGLDTIFLNKSWLKKFINKFPDLLKSKENYSFYFQIAYDNQDNRILVLNKIGPGLGKHFSRYGNLFLNSEYKENNRFINSLIEQYKKYDQNGGVLTDLNAVLGLNLNMHPNLLNYEITYPGCNPSKGINQVALKDIEVLYDSNSDQLKLYSKQYRQNVKLLPLGFLFPALSPSLYKFLCGFSESNGIEYSFWNKFLNEHNNNFSLLPRIMLGSVALDRRTWKINAKEIQKEFSKDTFETFINFHKWVKENQLPEDIFLRVANTMDAFSENELLNQDLGSWIAEIKQTKHRKPQYVNFNNYFHIDALRKIIKDVNNTVTIQEVYPHPDDVYYQKNSKKCVEFLVEVF”, the “soluble on expression in E. coli” value is reported as “soluble”.
For “SLKQQLIKNGLVLDMKGNHKPQAKDILIEGKWIRDIRPNIEPEVDTEIIDAEGKIVMPGFVDTHRHVWESLLRHIGTDWTLLTYLDNLYYGNLGSMLTPEDSYIANLWGALEAIDAGVTTVLDWSMLETPEHADASIKGLQAAGIRAVFAHGTPGYETYWSRDSEVRHPKDAKRVKKEYFQSDDQLLTMALAIRGPEFSSWEVTLDDIQLARELDAIASMHIGFGTWGPHDRSITRMREAGLLDSDLNLVHVNRIQPHEYEYIAESGASLSVTPEVEMMMGHGYPATGYLHKHRGLVTLGVDVVVATAGDMFAQMKFALQAERAWQNEQRLDRGEMPEQLKMTTNDVLTFATLNGAKALKLDDKIGTLDVGKEADLLLINPSSFNLFPLNHEPVGAVVQSARPENVDSVFIAGRPVKRHGKLLFDDLDGLRNKVLAASEAVFHRQAAKN”, the “soluble on expression in E. coli” value was “not soluble”.
In the case of “SLKVYSKDEIVEQAKELAKMISETEEVDFFKKAEAQIHKNENVKRAIDEIKALQKQAVNLQHYGKWEALKKVEAEIDALQDKLDSIPVVQEFKSSQTYVNDLLQLVASTISNNVTDEILISTNGDVLKGETGAAVESKKGNCGC”, the “soluble on expression in E. coli” value is reported as “soluble”.
In the case of “SLLKKIKKALFQPKKFFQDSMWLTTSPFYLTPPRNNLFVISNLGQLNQVQSLIKIQKLTNNLLVILYTSKNLKMPKLVHQSANKNLFESIYLFELPRSPNNITPKKLLYIYRSYKKILNIIQPAHLYMLSFTGHYSYLISIAKKKNITTHLIDEGTGTYAPLLESFSYHPTKLERYLIGNNLNIKGYIDHFDILHVPFPEYAKKIFNAKKYNRFFAHAGGISINNNIANLQKKYQISKNDYIFVSQRYPISDDLYYKSIVEILNSISLQIKGKIFIKLHPKEMGNNYVMSLFLNMVEINPRLVVINEPPFLIEPLIYLTNPKGIIGLASSSLIYTPLLSPSTQCLSIGELIINLIQKYSMVENTEMIQEHLEIIKKFNFINILNDLNGVISNPLFKTEETFETLLKSAEFAYKSKNYFQAIFYWQLASKNNITLLGHKALWYYNALYNVKQIYKMEYSDIFYIDNISVDFHSKDKLTWEKIKHYYYSADNRIGRDR”, the “soluble on expression in E. coli” value is reported as “not soluble”.
For “SLNIKLKDFTMINAVSSLAPVQSLGNYKRVEKNEKVENNEAALDRVAEIKKAIENNQYKINLHETSHKMAKDLLGIS”, the “soluble on expression in E. coli” value was “soluble”.
With “SLPGMEHNHNHDHSSHGNHAMHDVGPADATYDLRFIDAMIQHHYGAIEMAKVTINQGYPGAGALASQIISAQSWEIANMLRQRQLRFPDAPIMPVRYTPGQSTVLSQLQPMTEADKVAMRMSGTMDMTGDRGKAFAAAMIPHHEMAIAMAEDALAKSGDSFVRSISWEIIRTQSDEIRRLRGLL” the “soluble on expression in E. coli” value was “not soluble”.
In the case of “SLPHPAPGPGDPEDPRLAEVVDAVRSSRRYQSVAPETVRRLATSALVASRGDLAEAVKRTKRGLHEIFGAYLPSPPKYDALLRQLRGAVDAATTRPCGHPAPRHVHARLHPRALPILDEFYREVFARCADPASVRDLACGMNPLAAPWMPGSDAFTYHASDIDTRLMEFLDAALETLGVAHDVRVRDLMTGVGEVETDVTLLLKTVPCIEAQGRGQGWDLIDAIRSPLVVVSFPTKSLGQRSKGMFNTYSANFDAWLENRPHDVEQLEFRNELVYFVRKNA”, the “soluble on expression in E. coli” value is reported as “soluble”.
With “SLRHFGKRLRVSSSQPFRRSFNPKGEPMSTQIFVNLPVKNLNQSIEFFTQLGFQFNSQFTDETATCMIVSESIFVMLLTHEKFKMFTPKEICDATKSTEVLVCLSFDSREQVDEMVRLAVTAGGTTYNEPQDHGFMYGHGFADLDGHIWEIIYMEPSAINLGEG” the “soluble on expression in E. coli” value was “soluble”.
For “SLRRAAKAEAQAWLLTERLAQAEERHRLLEDQSATQIELIKAQAAQSANAIAEQLIKRADENAKSRERLAEARLEAQLKPVAETLAKFEAQVTAVEKARAEETGGLKAQITALLEASTATQAEARKLSAALRRGAGVQGRWGEQTLRNVLEAAGLNSRFDFQEQFSVDSEEGRRRPDVKVTLPGGGVFVIDAKCSLNAFLEAQDATDEVLREAAMARHAQSVRTHMQGLSSKAYWDQFAGEGSPDFVAMFVPGDGFLAAALDRLPELMAEAMDRRVVLVTPTTLFALCKAVAYGWRAEDQAKNAARIVEVGRELYKRVSVMGAHAGAMGKALESAVGKYNQFVGSLESQVLTQARRFEDLSVDHEGKEIPEPPMVDQAVRPLTKLKAVGQSPTLTLGNDTPT”, the “soluble on expression in E. coli” value was “soluble”.
For “SLSAASILVVDDEESLRITLAANLELEGHLVLEASSGDEALRLLRERAVDVVLTDIRMPGLHGVELHRHLRREHPGLPVVLMTAFAQESLINDALAEGAFTVLPKPFDVEHLLETLRREG”, the “soluble on expression in E. coli” value was “soluble”.
In the case of “SLSAPIRVLVVDDHVLSRRELEVALAAEADIEVVGSAVNSPAAVTLGSESRPDVALVDVEEPHEDGIRAVSAIKRAVSPVRILILATSDDEAHLFGAVRAGAVGYLLKPRPMDELTAAVRSVHNGVSIIGPGVASQVMKEFAAMARSEKSPAMPHLTVRELDVLKLMVGGCANQGISRRLLISENTVKNHIRNILEKLQFSAWEG”, the “soluble on expression in E. coli” value is reported as “soluble”.
For “SLSFTLEEEDITGTWYVKAMVVDKDFPEDRRPRKVSPVKVTALGGGNLEATFTFMREDRCIQKKILMRKTEEPGKFSAYGGRKLIYLQELPGTDDYVFYCKDQRRGGLRYMGKLVGRNPNTNLEALEEFKKLVQHKGLSEEDIFMPLQTGSCVLEH”, the “soluble on expression in E. coli” value was “soluble”.
In the case of “SLSMKLLIADDEDTIRNGIAKYIKLHTDRFSQIYLAENGQQALDIILQYQPDMMLLDVQMPLKTGLEVLQEAQKLSLVPKTIILSGYDDFEYARKALRYGAKDYLLKPCRSSEILEAINKLVQEQLGTKEDVECEEGTGIHYIVSSAIEYMEEYYHKNLTLIEVSNKVGITAGYLSTLFTQNMNCGFVEYLNKIRIKHACSYLEQNYFKTYEIAYKVGFKDEKYFSKVFKKETGITPYEYRRDHSIGKNIRTEG”, the “soluble on expression in E. coli” value is reported as “soluble”.
